Data taken from the DeepSol protein solubility set.

experiment: soluble on expression in E. coli; label from the status in PepcDB or PDB records

Sequence	soluble on expression in E. coli
SNDLSQWSISKDSNLDSPWIEGIPGCGIPGAGSLVEHIDRQILVLQRDGRYIVGLLRSYDQYANLVLENTFERFVLNDSYCDEPLGVFIIRGENVALLGEVDGEKESQWLSHLHTVSLEDTKKTIRGKRQATKALLHSQPERVEWTFYDDAFF	soluble
SNPFAHLAEPLDPVQPGKKFFNLNKLEDSRYGRLPFSIRVLLEAAIRNCDEFLVKKQDIENILHWNVTQHKNIEVPFKPARVILQDFTGVPAVVDFAAMRDAVKKLGGDPEKINPVCPADLVIDHSIQVDFNRRADSLQKNQDLEFERNRERFEFLKWGSQAFHNMRIIPPGSGIIHQVNLEYLARVVFDQDGYYYPDSLVGTDSHTTMIDGLGILGWGVGGIEAEAVMLGQPISMVLPQVIGYRLMGKPHPLVTSTDIVLTITKHLRQVGVVGKFVEFFGPGVAQLSIADRATIANMCPEYGATAAFFPVDEVSITYLVQTGRDEEKLKYIKKYLQAVGMFRDFNDPSQDPDFTQVVELDLKTVVPCCSGPKRPQDKVAVSDMKKDFESCLGAKQGFKGFQVAPEHHNDHKTFIYDNTEFTLAHGSVVIAAITSCTNTSNPSVMLGAGLLAKKAVDAGLNVMPYIKTSLSPGSGVVTYYLQESGVMPYLSQLGFDVVGYGCMTCIGNSGPLPEPVVEAITQGDLVAVGVLSGNRNFEGRVHPNTRANYLASPPLVIAYAIAGTIRIDFEKEPLGVNAKGQQVFLKDIWPTRDEIQAVERQYVIPGMFKEVYQKIETVNESWNALATPSDKLFFWNSKSTYIKSPPFFENLTLDLQPPKSIVDAYVLLNLGDSVTTDHISPAGNIARNSPAARYLTNRGLTPREFNSYGSRRGNDAVMARGTFANIRLLNRFLNKQAPQTIHLPSGEILDVFDAAERYQQAGLPLIVLAGKEYGAGSSRDWAAKGPFLLGIKAVLAESYERIHRSNLVGMGVIPLEYLPGENADALGLTGQERYTIIIPENLKPQMKVQVKLDTGKTFQAVMRFDTDVELTYFLNGGILNYMIRKMAK	soluble
SNTPSAEADWSPGLELHPDYKTWGPEQVCSFLRRGGFEEPVLLKNIRENEITGALLPCLDESRFENLGVSSLGERKKLLSYIQRLVQIHVDTMKVI	soluble
SPLKFELCPGRMIGGNNPCFIIAEIGQNHQGDIEIAKKMIKMAKDCGADCAKFQKSELEYKFNKKALERPYTSKHSWGKTYGEHKRHLEFSHEQYRELQQYAKQVGIFFTASGMDEMAVEFLHELDVPFFKVGSGDTNNFPYLKKTAQKGRPMVVSSGMQSMETMQHVYKIVKEHNQNFCILQCTSAYPLEPEDVNLRVITEYQKEFPDIPIGYSGHESGINITVGAVALGAKVVERHVTLDKSWKGSDHAASLEPEELAELVRSIRIVERALGTGLKRMLPCEVPCHDKLGKSVVAKTSIPKGTELTLDMLAVKVAEPKGVAPEEIFQLVGKKVTTDVEEDESITEDVVDSYGKKAKA	soluble
SPRPRKRQTGTAGPDRKKLSGKRTKTENSESTSVKLENSSLEMTTTFKNGGKNLSNYWLMKSEPESRLEKGIDMKFSIEDLKAQPKQTACWDGVRNYQARNFLRAMKLEDEAFFYHSNCKQPGIVGLMKIVKEAYPDHTQFEKSNPHYDPSSKEDDPKWSMVDVQFVRMMKRFIPLEELKTYHQAHKATGGPLKSMTLFTRQRLSVQPLTQEEFDFILSLEETEPS	soluble
SPSAEERQKEERTAGLNETVPQATDGELPDDKLKGYELGRDEEKESHRQETLGNLYDYFEKKDETREQEISEEAASDGLHPIERSVSRYEETSQMVHSFYEPPAYDYEKEALREELDMIRSELATLKEEKEEEIDHLELLEKSYRMAAKYFPASGDANSRDAYTRSQERPADAPAPKTAVTAERAALPAVELLPEKKAIVSSLDQPMSDSAFIAEYGHKERNFGFRSADVPASSVTRNTLRVVVDRTTTLQHGDFVQLRLLESARLHDLSIPRHTRLMAQARIDGNRMKLHITSIEYGGRIVSVQLSAFDTDGQEGVFIPGSEEVSALKE	not soluble
SQIPASEQETLVRPKPLLLKLLKSVGAQKDTYTMKEVLFYLGQYIMTKRLYDEKQQHIVYCSNDLLGDLFGVPSFSVKEHRKIYTMIYRNLVVVNQQESSDSGTSVSENHHHHHH	soluble
SQPKLALKQLAKQGDECLKKGAWVLIFPEGTRIPVGQMGKFSRGGTALAVNAGLPVLPIAHNAGQYWPKAGWAKYPGTIQVVIGPAMHAEGEGPRAIAELNQRAEAWVSETMAEISPIQQRVSHPEPSVVS	not soluble
SQRGVLEDEQMYQRCCNLFEKFFPSSSYRRPVGISSMVEAMVSRARIDARIDFESGRIKKEEFTEIMKICSTIEELRRQK	soluble
SRRRRSGTEPEKIEPGEGASRSRRDMLKDGGQQGLGTGARDPDKATRFRMEELRLTSTTFALTGDSAHNQAMVHWSGHNSSVILILTKLYDYNLGSITESSLWRSTDYGTTYEKLNDKVGLKTILSYLYVCPTNKRKIMLLTDPEIESSLLISSDEGATYQKYRLNFYIQSLLFHPKQEDWILAYSQDQKLYSSAEFGRRWQLIQESVVPNRFYWSVMGSSKEPDLVHLEARTVDGHSIYLTCRMQNCTEANRNKPFPGYIDPDSLIVQDDYVFVQLTSGGRPHYYVSYRRSPFAQMKLPKYALPKDMHVISTDENQVFAAVQEWNQNDTYNLYISDTRGVYFTLALENVQSSRGPEGNVMIDLYEVAGIKGMFLANKKIDNQVKTFITYNKGRDWRLLQAPDADLRGDPVHCLLPYCSLHLHLKVSENPYTSGIIASRDTAPSIIVASGNIGSELSDSDISMFVSSDAGNTWRQIFEEEHSILYLDQGGVLVAMKHTSLPIRHLWLSFDEGRSWSKYSFTSIPLFVDGVLGEPGEETLIMTVFGHFSHRSEWQLVKVDYKSIFDRRCAEEDYRPWQLHSQGEACIMGAKRIYKKRKSERKCMQGKYAGAMESEPCVCTEADFDCDYGYERHSNGQCLPAFWFNPSSLSKDCSLGQSYLNSTGYRKVVSNNCTDGVREQYTAKPQKCP	soluble
SSGAQGAEPMDSRTATTYESVEGGQNKTKLDIRSKEDEGGIQVDKLQDKVSDAAGLGGPVFGAGKDDKKQDLGVTGTG	soluble
SSGLVPRGPLGSHMDAVDATMEKLRAQCLSRGASGIQGLARFFRQLDRDGSRSLDADEFRQGLAKLGLVLDQAEAEGVCRKWDRNGSGTLDLEEFLRALRPPMSQAREAVIAAAFAKLDRSGDGVVTVDDLRGVYSGRAHPKVRSGEWTEDEVLRRFLDNFDSSEKDGQVTLAEFQDYYSGVSASMNTDEEFVAMMTSAWQLKL	soluble
SSKEAFDELSVLSAIYCEQGEFEVLEESPEKGVVFRVHTLIDNNEKTPLDIIFHISPEYPNTPPDISISSNHLSRRQCHDLRRSLLDTAQSLPAEPMVHGLMLWLQENFSDLIKTSSCHSAEVRPETTEETWTALLHLDHMRSKAKYIKLIEKWTLELRLTGRLFTGKLILILLQGTKENIKQYIHLLKSVKVDVDSSGKRCKEKMMSVLCEIPKPEDKIMMTTFEVKDILSLDDLRREFDLIGLNELYHQFVSSLT	soluble
SSRIGEIKEETTSHLRSCEYKGRPPKAGAEPASEREVS	soluble
SSSTSHSSLKSPSHMEKYPQKEKTKEDLDSRSNLHLPETKFSELSKLKNDDMEKANHIESVIKSNLPNCANSDTDFMGLFKSSRYDPSISFSGMSLSDTMTLRGSVQNKLNPRPGKVVIYSEPDVSEKCIEVFSDIQDCSSWSLSPVILIKVVRGCWILYEQPNFEGHSIPLEEGELELSGLWGIEDILERHEEAESDKPVVIGSIRHVVQDYRVSHIDLFTEPEGLGILSSYFDDTEEMQGFGVMQKTCSMKVHWGTWLIYEEPGFQGVPFILEPGEYPDLSFWDTEAAYIGSMRPLKMGGRKVEFPTDPKVVVYEKPFFEGKCVELETGMCSFVMEGGETEEATGDDHLPFTSVGSMKVLRGIWVAYEKPGFTGHQYLLEEGEYRDWKAWGGYNGELQSLRPILGDFSNAHMIMYSEKNFGSKGSSIDVLGIVANLKETGYGVKTQSINVLSGVWVAYENPDFTGEQYILDKGFYTSFEDWGGKNYKISSVQPICLDSFTGPRRRNQIHLFSEPQFQGHSQSFEETTSQIDDSFSTKSCRVSGGSWVVYDGENFTGNQYVLEEGHYPCLSAMGCPPGATFKSLRFIDVEFSEPTIILFEREDFKGKKIELNAETVNLRSLGFNTQIRSVQVIGGIWVTYEYGSYRGRQFLLSPAEVPNWYEFSGCRQIGSLRPFVQKRIYFRLRNKATGLFMSTNGNLEDLKLLRIQVMEDVGADDQIWIYQEGCIKCRIAEDCCLTIVGSLVTSGSKLGLALDQNADSQFWSLKSDGRIYSKLKPNLVLDIKGGTQYDQNHIILNTVSKEKFTQVWEAMVLYT	soluble
